# B1: DEVE→A: MEKK1 mutant with DEVE (amino acids 857-860) substituted with alanines (protein, UniProt P53349 2-1493, looked up, variant D857A E858A V859A E860A)
# Mitogen-activated protein …: AAAAGDRASSSGFPGAAAASPEAGGGGGGGGALQGSGAPAAGAAGLLREPGSAGRERADWRRRQLRKVRSVELDQLPEQPLFLAAASPPCPSTSPSPEPADAAAGASRFQPAAGPPPPGAASRCGSHSAELAAARDSGARSPAGAEPPSAAAPSGREMENKETLKGLHKMEDRPEERMIREKLKATCMPAWKHEWLERRNRRGPVVVKPIPIKGDGSEVNNLAAEPQGEGQAGSAAPAPKGRRSPSPGSSPSGRSVKPESPGVRRKRVSPVPFQSGRITPPRRAPSPDGFSPYSPEETSRRVNKVMRARLYLLQQIGPNSFLIGGDSPDNKYRVFIGPQNCSCGRGAFCIHLLFVMLRVFQLEPSDPMLWRKTLKNFEVESLFQKYHSRRSSRIKAPSRNTIQKFVSRMSNSHTLSSSSTSTSSSENSIKDEEEQMCPICLLGMLDEESLTVCEDGCRNKLHHHCMSIWAEECRRNREPLICPLCRSKWRSHDFYSHELSSPVESPASLRAVQQPSSPQQPVAGSQRRNQESSFNLTHFGTQQIPSAYKDLAEPWIQVFGMELVGCLFSRNWNVREMALRRLSHDVSGALLLANGESTGNSGGGSGGSLSAGAASGSSQPSISGDVVEACCSVLSIVCADPVYKVYVAALKTLRAMLVYTPCHSLAERIKLQRLLRPVVDTILVKCADANSRTSQLSISTVLELCKGQAGELAVGREILKAGSIGVGGVDYVLSCILGNQAESNNWQELLGRLCLIDRLLLEFPAEFYPHIVSTDVSQAEPVEIRYKKLLSLLTFALQSIDNSHSMVGKLSRRIYLSSARMVTAVPAVFSKLVTMLNASGSTHFTRMRRRLMAIAAAAAIAEVIQLGVEDTVDGHQDSLQAVAPTSCLENSSLEHTVHREKTGKGLSATRLSASSEDISDRLAGVSVGLPSSTTTEQPKPAVQTKGRPHSQCLNSSPLSHAQLMFPAPSAPCSSAPSVPDISKHRPQAFVPCKIPSASPQTQRKFSLQFQRNCSEHRDSDQLSPVFTQSRPPPSSNIHRPKPSRPVPGSTSKLGDATKSSMTLDLGSASRCDDSFGGGGNSGNAVIPSDETVFTPVEDKCRLDVNTELNSSIEDLLEASMPSSDTTVTFKSEVAVLSPEKAENDDTYKDDVNHNQKCKEKMEAEEEEALAIAMAMSASQDALPIVPQLQVENGEDIIIIQQDTPETLPGHTKAKQPYREDAEWLKGQQIGLGAFSSCYQAQDVGTGTLMAVKQVTYVRNTSSEQEEVVEALREEIRMMGHLNHPNIIRMLGATCEKSNYNLFIEWMAGGSVAHLLSKYGAFKESVVINYTEQLLRGLSYLHENQIIHRDVKGANLLIDSTGQRLRIADFGAAARLASKGTGAGEFQGQLLGTIAFMAPEVLRGQQYGRSCDVWSVGCAIIEMACAKPPWNAEKHSNHLALIFKIASATTAPSIPSHLSPGLRDVAVRCLELQPQDRPPSRELLKHPVFRTTW
# B2: JNK2-APF: inhibitory mutant of JNK2 (protein, UniProt P45984 1-424, looked up, variant T183A Y185F)
# Mitogen-activated protein …: MSDSKCDSQFYSVQVADSTFTVLKRYQQLKPIGSGAQGIVCAAFDTVLGINVAVKKLSRPFQNQTHAKRAYRELVLLKCVNHKNIISLLNVFTPQKTLEEFQDVYLVMELMDANLCQVIHMELDHERMSYLLYQMLCGIKHLHSAGIIHRDLKPSNIVVKSDCTLKILDFGLARTACTNFMMAPFVVTRYYRAPEVILGMGYKENVDIWSVGCIMGELVKGCVIFQGTDHIDQWNKVIEQLGTPSAEFMKKLQPTVRNYVENRPKYPGIKFEELFPDWIFPSESERDKIKTSQARDLLSKMLVIDPDKRISVDEALRHPYITVWYDPAEAEAPPPQIYDAQLEEREHAIEEWKELIYKEVMDWEERSKNGVVKDQPSDAAVSSNATPSQSSSINDISSMSTEQTLASDTDSSLDASTGPLEGCR
# B3: JNK1-APF: inhibitory mutant of JNK1 (protein, UniProt P45983 1-427, looked up, variant T183A Y185F)
# Mitogen-activated protein …: MSRSKRDNNFYSVEIGDSTFTVLKRYQNLKPIGSGAQGIVCAAYDAILERNVAIKKLSRPFQNQTHAKRAYRELVLMKCVNHKNIIGLLNVFTPQKSLEEFQDVYIVMELMDANLCQVIQMELDHERMSYLLYQMLCGIKHLHSAGIIHRDLKPSNIVVKSDCTLKILDFGLARTAGTSFMMAPFVVTRYYRAPEVILGMGYKENVDLWSVGCIMGEMVCHKILFPGRDYIDQWNKVIEQLGTPCPEFMKKLQPTVRTYVENRPKYAGYSFEKLFPDVLFPADSEHNKLKASQARDLLSKMLVIDASKRISVDEALQHPYINVWYDPSEAEAPPPKIPDKQLDEREHTIEEWKELIYKEVMDLEERTKNGVIRGQPSPLGAAVINGSQHPSSSSSVNDVSSMSTDPTLASDTDSSLEAAAGPLGCCR
# Experiments:
# Type in all cases: cell-based, Human
# [1] = system: MEKK1; assay: Immunoblot of cleavage fragments of transfected HA-tagged MEKK1 in HEK293 cells; conditions: for effect on proteolysis of MEKK1: co-expression with MEKK1
# From the text: The full length cDNA encoding mouse MEKK1 was modified by addition of the HA-tag sequence ([…]) (SEQ ID NO: 12) at its NH2-terminus and inserted into the expression plasmid pCEP4 (Invitrogen), resulting in plasmid MEKK1.cp4. The MEKK1 sequences DTVD (amino acids 871-874) and DEVE (amino acids 857-860) in MEKK1.cp4 were substituted with alanines using a PCR strategy. The resulting plasmids were named DTVD_A.cp4 and DEVE_A.cp4. The cDNAs for CrmA (Pickup et al., 1986), p35 (Cartier et al., 1994), JNK1-APF (Dérijard et al., 1994) and JNK2-APF (Kallunki et al., 1994) were subcloned in pCEP4 in which the hygromycin resistance gene had been removed, resulting in plasmids CrmA.cp_, p35.cp_, JNK1_APF.cp and JNK2_APF.cp_. Plasmid pCDNA—3.cp4 is the result of the ligation of pCEP4 and pCDNA-3.
# 200-400 μg cell lysate protein was subjected to SDS-9% PAGE and transferred to nitrocellulose membranes. Blots were performed exactly as described (Widmann et al., 1995). To detect HA-tagged proteins, the mouse monoclonal antibody 12CA5 (Babco) was used as the primary antibody, followed by a rabbit anti-mouse antibody (Cappel). HRP-conjugated protein A at a 1/5000 dilution (Zymed) and ^125I-protein A at a 1/500 dilution (Dupont NEN) were then used for enhanced chemiluminescence (ECL) detection and for quantification using the phosphorimager. To detect MEKK1, 3 different ploclonal antisera were used as primary antibodies, followed by ECL detection using HRP-protein A (see above). These sera were generated by injecting rabbits with GST proteins fused with different portions of the MEKK1 protein.
# [2] = system: HEK293 cells; assay: MEKK1 staining and TdT-mediated dUTP incorporation (DNA fragmentation) in transfected cells; conditions: for diminution of apoptotic cells induced by MEKK1 expression: co-expression with MEKK1
# Method: Human embryonal kidney 293 cells (HEK293) stably expressing the EBNA-1 protein from Epstein-Barr virus (Invitrogen) were grown in Dulbecco's modified Eagle's medium (DMEM) supplemented with 100 U/ml penicillin/streptomycin and containing 10% bovine calf serum (BCS). The cells were transfected using lipofectamine (Gibco).
# Cells were grown on glass coverslips and transfected using lipofectamine. Two days after transfection, the medium was removed and the cells were fixed in 2% paraformaldehyde, 3% sucrose in phosphate buffered saline (PBS) for 10 min at room temperature. Following three washes with PBS, the cells were permeabilized for 10 min with 2% Triton-X100 in PBS. After three PBS washes, the cells were blocked with filtered cultured medium for 15 min. The coverslips were then incubated 1 hour in TdT reaction mix (200 mM potassium cacodylate, 25 mM Tris.HCl, pH 6.6, 250 μg/ml BSA, 5 mM CoCl2, 0.25 U/μl TdT [Boehringer], 10 μM biotin-dUTP [Boehringer]) at 37° C. in a humidifed atmosphere. […] The coverslips were then washed 6× over a 30 min period with PBS and incubated 1 hour at room temperature with a 1/1000 dilution in filtered culture medium of a donkey anti-rabbit, Cy^3-conjugated, antibody (Jackson Immunological) mixed with 5 μg/ml streptavidin conjugated with FITC (Jackson Immunological). The coverslips were washed 6× with PBS and incubated overnight in PBS before being mounted in 20 mg/ml o-phenyldiamine-diHCl (Sigma) in 0.1 M Tris pH 8.5, 90% glycerol. Images were taken using a Leica DMRXA microscope and analyzed with the SlideBook v2.0 software (Intelligent Imaging Innovations, Denver). The subcellular localization of endogenous MEKK1 observed with the anti-COOH-terminal MEKK1 antibody was identical to that observed with a second antibody recognizing the NH2-terminal portion of the MEKK1 protein.
# [3] = system: c-Jun kinase (JNK); assay: c-Jun kinase assay, transfected HEK293 cells; conditions: for effect on activation of the JNKs by MEKK1: co-expression with MEKK1
# Method: (§1) Lysis buffer (70 mM β-glycerophosphate, 1 mM EGTA, 100 μM Na3VO4, 1 mM DTT, 2 mM MgCl2, 0.5% Triton-X100, 20 μg/ml aprotinin) was added to cells 15-24 hours after transfection. Cellular debris was removed by centrifugation at 8,000xg for 5 min. Protein concentration was normalized by Bradford assay using BSA as standard.
# c-Jun kinase (JNK) activity was measured using a solid phase kinase assay in which glutathione S-transferase-c-Jun(1-79) (GST-Jun) bound to glutathione-Sepharose 4B beads was used to affinity-purify JNK from cell lysates as described (Gardner and Johnson, 1996; Hibi et al., 1993). Alternatively, JNKI or JNK2 were immunoprecipitated with isoform specific antibodies (Santa Cruz Biotechnology) and GST-Jun used as substrate in an in vitro kinase assay (Hibi et al., 1993). Quantitation of the phosphorylation of GST-Jun was performed with a Phosphorlmager.
# [4] = system: ERK2; assay: ERK2 immunoprecipitation kinase assay, transfected HEK293 cells; conditions: co-expression with MEKK1
# Method: as §1
# ERK2 was immunoprecipitated as described above for the JNK isoforms using the ERK2 (C-14) antibody (Santa Cruz Biotechnology). The beads were washed twice with 1 ml lysis buffer and twice with 1 ml lysis buffer without Triton-X100. […] The samples were washed thrice for 5 min each in 75 mM phosphoric acid and once for 2 min in acetone, air-dried, and their radioactivity determined in a β counter.
Molecule,MEKK1 cleavage fragments generated ([1]; mutants transfected into HEK293 cells),DNA fragmentation ([2]; expression in HEK293 cells),JNK activation ([3]; expression in HEK293 cells),effect on proteolysis of MEKK1 [1],effect on activation of ERK2 by MEKK1 [4],effect on activation of the JNKs by MEKK1 [3],diminution of apoptotic cells induced by MEKK1 expression [2],diminution of apoptotic cells induced by MEKK1 expression ([2]; listed as JNKI-APF)
B1,"cleaved into fragments A, B, C and D",induced DNA fragmentation,activated JNK to the same level as wild type MEKK1,–,–,–,–,–
B2,–,–,–,little effect on the proteolysis of the MEKK1 protein,unaffected,unaffected,–,–
B3,–,–,–,little effect on the proteolysis of the MEKK1 protein,unaffected,unaffected,no effect,no protective effect
